From patent US20250152727A1 come the findings set out here.

The assay has as its target recombinant human TfR1 (human) (UniProt P02786). Description: SPR (Carterra LSA), IgG captured on chip, TfR1 as analyte, 25 C.

In general, Kd refers to the constant that tells how readily two partners part at equilibrium.

Sequence of recombinant human TfR1 (human) (P02786 89-760 limits assumed): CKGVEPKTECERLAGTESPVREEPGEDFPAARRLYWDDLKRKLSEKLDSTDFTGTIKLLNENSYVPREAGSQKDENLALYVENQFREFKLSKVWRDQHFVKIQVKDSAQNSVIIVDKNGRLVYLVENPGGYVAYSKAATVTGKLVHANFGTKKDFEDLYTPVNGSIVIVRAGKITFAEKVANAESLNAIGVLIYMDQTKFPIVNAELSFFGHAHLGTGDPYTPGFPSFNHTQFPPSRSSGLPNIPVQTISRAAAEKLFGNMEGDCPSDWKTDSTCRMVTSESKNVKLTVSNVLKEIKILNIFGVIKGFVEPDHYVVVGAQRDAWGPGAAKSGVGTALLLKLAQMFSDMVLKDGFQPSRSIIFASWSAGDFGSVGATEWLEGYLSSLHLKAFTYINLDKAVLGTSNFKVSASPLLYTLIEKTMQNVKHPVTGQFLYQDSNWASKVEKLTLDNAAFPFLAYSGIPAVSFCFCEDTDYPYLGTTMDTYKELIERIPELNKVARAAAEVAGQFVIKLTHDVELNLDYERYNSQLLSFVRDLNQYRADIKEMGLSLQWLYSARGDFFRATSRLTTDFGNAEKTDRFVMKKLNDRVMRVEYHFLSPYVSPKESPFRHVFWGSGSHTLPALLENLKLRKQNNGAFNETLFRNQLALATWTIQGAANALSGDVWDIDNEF

OKT9 mIgG (antibody): the Kd is 0.536 nM.
